Experiments:
H7 A/Anhui/1/2013 HA = H7 A/Anhui/1/2013 HA (Influenza A virus A/Anhui/1/2013 (H7N9), UniProt A0A024E3P0); experiment: BLI; […], dissociation 5 min; 1% BSA in PBS; 30°C; […]; settings: both partners purified
H5 HA = H5 HA (Influenza A virus H5, assay strain not …, UniProt A5A5L7); experiment: ELISA + BLI; settings: both partners purified

B1: 43_S0008 (antibody, V domains shown)
VH: QVQLVQSGAEVKKPGSSVKVSCKASGGTFRTFGISWVRQAPGQGLEWMGWIIPIIGTPNYAQKFQGRVIITADESSNTAYMELNSLKSEDTAVYYCAKEGRALLRYFDWLPLDAFDIWGQGTMVTVSS
VL: DIVLTQTPLSLPVSLGDQASISCRSSQSLVHSDGNTYLHWYLQKPGQSPKLLIYKVSNRFSGVPDRFSGSGSGTDFTLKISRVEAEDLGVYFCSQSTHVPPLTFGAGTKLELK
notes: also called mAb 43_S0008; IGHV1-69 + IGHD3-9 mAb 43_S0008; source: Expi293 cells, purified (protein A)
B1: binds (H7 A/Anhui/1/2013 HA); binds (H5 HA).

— publication PMC11672684 (Cell Reports, 2024)
